{"source": "paper PMC3901153", "origin": "cited, not measured here", "key": {"RAGE (Homo sapiens)": {"molecular_target": "RAGE (Homo sapiens) (UniProt Q15109)", "sequence (Q15109 23-404)": "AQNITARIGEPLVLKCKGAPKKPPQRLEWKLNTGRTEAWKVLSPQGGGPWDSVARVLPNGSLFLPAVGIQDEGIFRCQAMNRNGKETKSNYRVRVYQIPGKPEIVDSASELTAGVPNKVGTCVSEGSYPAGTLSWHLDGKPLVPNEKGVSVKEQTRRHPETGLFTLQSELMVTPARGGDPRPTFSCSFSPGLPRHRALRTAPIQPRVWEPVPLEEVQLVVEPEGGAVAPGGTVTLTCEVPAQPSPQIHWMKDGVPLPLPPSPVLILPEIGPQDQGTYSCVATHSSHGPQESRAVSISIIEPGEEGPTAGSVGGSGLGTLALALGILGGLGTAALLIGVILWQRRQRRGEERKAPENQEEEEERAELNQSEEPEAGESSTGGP"}, "TLR4 (Homo sapiens)": {"molecular_target": "TLR4 (Homo sapiens) (UniProt O00206)", "sequence (O00206 24-839)": "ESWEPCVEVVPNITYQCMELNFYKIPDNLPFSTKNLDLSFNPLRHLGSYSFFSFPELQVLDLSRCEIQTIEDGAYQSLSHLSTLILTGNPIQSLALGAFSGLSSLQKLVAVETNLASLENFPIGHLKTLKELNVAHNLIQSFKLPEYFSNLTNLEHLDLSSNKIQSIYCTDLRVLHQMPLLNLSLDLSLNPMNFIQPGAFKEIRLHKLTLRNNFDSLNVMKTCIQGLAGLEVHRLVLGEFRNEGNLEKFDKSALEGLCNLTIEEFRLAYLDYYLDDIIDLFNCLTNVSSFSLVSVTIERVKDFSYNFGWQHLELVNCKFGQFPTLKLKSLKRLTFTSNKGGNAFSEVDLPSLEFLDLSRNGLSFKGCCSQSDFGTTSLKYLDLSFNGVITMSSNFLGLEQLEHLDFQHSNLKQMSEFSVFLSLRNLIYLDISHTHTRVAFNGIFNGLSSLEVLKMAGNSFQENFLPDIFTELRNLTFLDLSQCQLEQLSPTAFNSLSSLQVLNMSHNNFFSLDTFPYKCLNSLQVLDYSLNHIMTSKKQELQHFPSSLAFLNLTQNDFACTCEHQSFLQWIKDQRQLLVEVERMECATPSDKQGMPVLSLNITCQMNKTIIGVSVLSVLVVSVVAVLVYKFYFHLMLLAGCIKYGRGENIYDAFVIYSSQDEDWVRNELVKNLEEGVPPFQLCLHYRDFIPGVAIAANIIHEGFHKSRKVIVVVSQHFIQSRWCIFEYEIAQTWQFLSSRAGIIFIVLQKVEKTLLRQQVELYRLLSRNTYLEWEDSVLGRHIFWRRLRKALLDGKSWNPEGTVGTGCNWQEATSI"}}, "data": [{"substance": "HMGB1 (from UniProt P09429)", "values": [{"measurement": "Kd", "setting": "RAGE (Homo sapiens)", "result": 0.01, "unit": "µM"}, {"measurement": "Kd", "setting": "TLR4 (Homo sapiens)", "result": 1.5, "unit": "µM"}]}]}
